Experiments:
[1] = molecular target: c-Src SH2; assay: SH2 binding enrichment of the phosphorylated peptide, bacterial display (enrichment ratio); higher = better substrate or ligand; peptides without Tyr show the background
[2] = molecular target: Grb2 SH2 (UniProt P62993); assay: as above
[3] = molecular target: SHP2-C SH2; assay: as above
[4] = system: Fer (mouse); assay: phosphorylation enrichment, bacterial display (enrichment ratio); higher = better substrate or ligand; peptides without Tyr show the background
[5] = molecular target: FGFR3 (UniProt P22607); assay: as above
[6] = molecular target: EPHB1 (UniProt P54762); assay: as above
Sequence of EPHB1 (P54762 whole entry, looked up): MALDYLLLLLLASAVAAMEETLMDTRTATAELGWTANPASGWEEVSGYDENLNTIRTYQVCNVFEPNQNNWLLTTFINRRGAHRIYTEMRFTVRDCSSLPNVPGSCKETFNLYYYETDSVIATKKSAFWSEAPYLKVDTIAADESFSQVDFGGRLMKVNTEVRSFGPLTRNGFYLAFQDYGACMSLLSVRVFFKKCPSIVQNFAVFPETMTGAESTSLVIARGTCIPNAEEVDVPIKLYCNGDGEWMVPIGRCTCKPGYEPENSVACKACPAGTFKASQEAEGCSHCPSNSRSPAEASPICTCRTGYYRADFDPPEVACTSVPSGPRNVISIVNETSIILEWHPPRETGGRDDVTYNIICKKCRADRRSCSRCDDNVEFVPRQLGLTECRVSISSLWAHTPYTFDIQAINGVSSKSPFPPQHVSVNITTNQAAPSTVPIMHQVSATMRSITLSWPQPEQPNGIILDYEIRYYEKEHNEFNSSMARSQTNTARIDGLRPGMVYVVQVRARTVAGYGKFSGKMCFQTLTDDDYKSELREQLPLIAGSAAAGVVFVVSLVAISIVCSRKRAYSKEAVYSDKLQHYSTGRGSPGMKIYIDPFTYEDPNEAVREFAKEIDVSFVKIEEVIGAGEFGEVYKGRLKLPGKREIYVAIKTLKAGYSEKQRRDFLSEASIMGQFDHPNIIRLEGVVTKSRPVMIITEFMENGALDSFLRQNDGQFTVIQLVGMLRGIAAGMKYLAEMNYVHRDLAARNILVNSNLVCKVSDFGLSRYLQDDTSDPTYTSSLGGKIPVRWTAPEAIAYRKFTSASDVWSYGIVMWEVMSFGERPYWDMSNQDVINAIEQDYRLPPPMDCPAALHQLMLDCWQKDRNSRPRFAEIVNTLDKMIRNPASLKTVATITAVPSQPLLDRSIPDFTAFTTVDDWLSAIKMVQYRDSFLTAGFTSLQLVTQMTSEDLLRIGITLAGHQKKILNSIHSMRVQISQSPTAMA

[7] = molecular target: MERTK (UniProt Q12866); assay: as above
[8] = molecular target: Jak2 (UniProt O60674); assay: as above
[9] = molecular target: Fes (UniProt P07332); assay: as above
Sequence of Fes (P07332 whole entry, looked up): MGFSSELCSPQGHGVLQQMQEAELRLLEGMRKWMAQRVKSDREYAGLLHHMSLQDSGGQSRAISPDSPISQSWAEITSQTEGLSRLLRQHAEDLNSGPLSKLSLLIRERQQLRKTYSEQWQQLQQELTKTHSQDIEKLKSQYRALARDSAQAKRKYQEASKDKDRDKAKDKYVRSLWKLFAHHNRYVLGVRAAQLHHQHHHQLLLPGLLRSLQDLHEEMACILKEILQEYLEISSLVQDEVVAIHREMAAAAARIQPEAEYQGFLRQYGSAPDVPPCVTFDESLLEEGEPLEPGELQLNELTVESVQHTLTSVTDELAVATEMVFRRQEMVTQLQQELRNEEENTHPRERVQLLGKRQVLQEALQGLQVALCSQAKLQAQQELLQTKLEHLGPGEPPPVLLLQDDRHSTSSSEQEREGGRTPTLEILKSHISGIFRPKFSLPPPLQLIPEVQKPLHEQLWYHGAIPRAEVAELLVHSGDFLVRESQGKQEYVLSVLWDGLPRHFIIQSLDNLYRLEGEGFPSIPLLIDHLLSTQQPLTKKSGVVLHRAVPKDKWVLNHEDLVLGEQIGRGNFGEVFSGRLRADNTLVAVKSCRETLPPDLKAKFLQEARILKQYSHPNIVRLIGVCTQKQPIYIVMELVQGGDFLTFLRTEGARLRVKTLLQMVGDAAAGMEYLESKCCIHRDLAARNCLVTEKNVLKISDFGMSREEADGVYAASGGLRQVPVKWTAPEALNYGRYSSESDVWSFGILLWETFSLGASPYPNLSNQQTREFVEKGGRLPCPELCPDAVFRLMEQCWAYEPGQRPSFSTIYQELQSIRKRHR

[10] = system: AncSZ; assay: as above
[11] = molecular target: Hck (UniProt P08631); assay: as above
Sequence of Hck (P08631 whole entry, looked up): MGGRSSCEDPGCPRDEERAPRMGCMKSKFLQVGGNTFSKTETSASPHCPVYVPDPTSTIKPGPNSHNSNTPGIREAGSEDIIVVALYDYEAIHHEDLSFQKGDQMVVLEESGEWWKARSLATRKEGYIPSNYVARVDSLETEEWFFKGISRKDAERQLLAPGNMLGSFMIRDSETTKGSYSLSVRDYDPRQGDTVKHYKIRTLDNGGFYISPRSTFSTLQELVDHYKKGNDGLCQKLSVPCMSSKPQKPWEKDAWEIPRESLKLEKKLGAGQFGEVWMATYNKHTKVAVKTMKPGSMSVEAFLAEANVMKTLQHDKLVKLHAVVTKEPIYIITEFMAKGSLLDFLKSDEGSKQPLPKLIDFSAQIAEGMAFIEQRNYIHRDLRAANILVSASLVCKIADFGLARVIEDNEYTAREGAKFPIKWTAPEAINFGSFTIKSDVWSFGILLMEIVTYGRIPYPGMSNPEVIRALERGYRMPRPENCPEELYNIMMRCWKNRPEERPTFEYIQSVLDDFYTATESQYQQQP

[12] = system: c-Abl (mouse); assay: as above
[13] = system: c-Src; assay: as above
[14] = molecular target: EPHB2 (UniProt P29323); assay: as above
Sequence of EPHB2 (P29323 whole entry, looked up): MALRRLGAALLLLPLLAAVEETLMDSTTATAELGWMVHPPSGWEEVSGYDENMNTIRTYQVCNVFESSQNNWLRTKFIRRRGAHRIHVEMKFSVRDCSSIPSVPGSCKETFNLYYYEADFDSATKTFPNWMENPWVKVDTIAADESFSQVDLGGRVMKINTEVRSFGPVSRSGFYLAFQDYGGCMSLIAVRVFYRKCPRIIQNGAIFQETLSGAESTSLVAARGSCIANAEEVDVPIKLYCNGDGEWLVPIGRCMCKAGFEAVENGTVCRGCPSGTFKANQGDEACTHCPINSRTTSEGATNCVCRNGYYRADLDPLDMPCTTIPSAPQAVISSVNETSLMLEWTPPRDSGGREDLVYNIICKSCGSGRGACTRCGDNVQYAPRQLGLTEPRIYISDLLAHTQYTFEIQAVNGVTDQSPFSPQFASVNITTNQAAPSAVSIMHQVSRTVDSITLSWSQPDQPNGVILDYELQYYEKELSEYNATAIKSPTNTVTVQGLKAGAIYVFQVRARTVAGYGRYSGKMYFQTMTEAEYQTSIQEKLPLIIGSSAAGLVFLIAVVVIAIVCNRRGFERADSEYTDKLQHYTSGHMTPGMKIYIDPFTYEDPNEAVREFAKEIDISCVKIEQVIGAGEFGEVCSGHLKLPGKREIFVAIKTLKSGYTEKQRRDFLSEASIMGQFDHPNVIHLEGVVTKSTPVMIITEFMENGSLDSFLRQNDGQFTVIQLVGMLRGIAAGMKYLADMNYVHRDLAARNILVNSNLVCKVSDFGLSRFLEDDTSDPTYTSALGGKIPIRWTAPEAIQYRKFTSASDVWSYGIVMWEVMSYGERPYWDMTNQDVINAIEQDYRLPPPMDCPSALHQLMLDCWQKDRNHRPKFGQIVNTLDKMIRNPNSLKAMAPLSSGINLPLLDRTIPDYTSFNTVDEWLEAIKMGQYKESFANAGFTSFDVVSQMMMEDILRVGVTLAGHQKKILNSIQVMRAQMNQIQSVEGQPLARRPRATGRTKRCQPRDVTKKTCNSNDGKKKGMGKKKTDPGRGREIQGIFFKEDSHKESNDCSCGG

[15] = molecular target: Fyn (UniProt P06241); assay: as above
Sequence of Fyn (P06241 whole entry, looked up): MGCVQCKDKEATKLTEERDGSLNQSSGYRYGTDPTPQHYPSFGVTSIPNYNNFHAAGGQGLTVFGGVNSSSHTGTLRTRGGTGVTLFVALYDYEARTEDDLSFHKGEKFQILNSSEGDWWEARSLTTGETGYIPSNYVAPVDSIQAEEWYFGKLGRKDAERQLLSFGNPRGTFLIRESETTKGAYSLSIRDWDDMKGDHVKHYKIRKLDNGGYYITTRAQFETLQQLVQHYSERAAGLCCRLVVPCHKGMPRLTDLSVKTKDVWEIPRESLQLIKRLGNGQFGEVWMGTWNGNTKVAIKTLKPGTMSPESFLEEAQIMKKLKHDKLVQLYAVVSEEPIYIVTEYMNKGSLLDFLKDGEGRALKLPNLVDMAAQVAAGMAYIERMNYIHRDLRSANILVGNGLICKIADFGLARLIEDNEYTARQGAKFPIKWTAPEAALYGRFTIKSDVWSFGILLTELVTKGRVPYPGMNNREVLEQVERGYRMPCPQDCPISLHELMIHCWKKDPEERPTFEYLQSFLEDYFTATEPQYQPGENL

[16] = molecular target: FGFR1 (UniProt P11362); assay: as above
Sequence of FGFR1 (P11362 whole entry, looked up, the tested form may be a part): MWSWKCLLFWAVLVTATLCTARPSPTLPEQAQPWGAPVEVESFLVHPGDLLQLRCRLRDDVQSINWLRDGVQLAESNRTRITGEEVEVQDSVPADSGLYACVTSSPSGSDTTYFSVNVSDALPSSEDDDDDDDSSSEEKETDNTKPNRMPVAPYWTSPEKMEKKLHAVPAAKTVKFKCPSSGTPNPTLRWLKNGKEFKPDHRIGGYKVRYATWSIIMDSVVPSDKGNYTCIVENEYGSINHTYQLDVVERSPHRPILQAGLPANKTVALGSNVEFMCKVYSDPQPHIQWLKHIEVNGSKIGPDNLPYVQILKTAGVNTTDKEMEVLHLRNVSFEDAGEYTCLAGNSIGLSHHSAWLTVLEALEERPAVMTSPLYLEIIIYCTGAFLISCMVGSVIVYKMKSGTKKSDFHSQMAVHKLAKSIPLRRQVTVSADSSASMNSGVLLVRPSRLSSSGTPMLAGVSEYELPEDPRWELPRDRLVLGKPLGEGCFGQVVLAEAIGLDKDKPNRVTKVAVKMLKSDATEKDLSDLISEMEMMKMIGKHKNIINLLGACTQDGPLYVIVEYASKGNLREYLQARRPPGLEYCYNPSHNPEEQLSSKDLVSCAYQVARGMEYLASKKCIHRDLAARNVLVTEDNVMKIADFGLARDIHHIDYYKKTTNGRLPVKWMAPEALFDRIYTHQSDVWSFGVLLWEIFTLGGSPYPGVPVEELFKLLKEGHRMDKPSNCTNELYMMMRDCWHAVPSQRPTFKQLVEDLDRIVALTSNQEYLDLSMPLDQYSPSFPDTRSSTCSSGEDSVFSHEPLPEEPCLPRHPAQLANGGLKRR
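For SH2 binding enrichment of the phosphorylated peptide, bacterial display in this document: peptide library displayed on the E. coli surface as eCPX fusions, selected cells deep-sequenced, score is each peptide's frequency after selection divided by its frequency in the input.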
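For phosphorylation enrichment, bacterial display in this document: 11-residue human phosphosite peptides and single-mutation variants displayed on the E. coli surface, counted by deep sequencing, each peptide's frequency after selection divided by its frequency in the unselected input library; frequency after pTyr selection over input frequency; kinase dosed for 20-30% of maximal phosphorylation in three min.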

Sequence	SH2 binding enrichment [1]	SH2 binding enrichment [2]	SH2 binding enrichment [3]	phosphorylation enrichment [4]	phosphorylation enrichment [5]	phosphorylation enrichment [6]	phosphorylation enrichment [7]	phosphorylation enrichment [8]	phosphorylation enrichment [9]	phosphorylation enrichment [10]	phosphorylation enrichment [11]	phosphorylation enrichment [12]	phosphorylation enrichment [13]	phosphorylation enrichment [14]	phosphorylation enrichment [15]	phosphorylation enrichment [16]
WQQQSYLDSEI [CTNNB1_Y30_G34E]	0.49	0.992	0.707	0.514	0.669	0.512	0.377	0.96	0.854	0.792	0.444	0.581	0.421	0.557	0.437	0.397
LPKVSYMKAID [GLRA1_Y307_V308M]	0.473	0.995	0.731	0.65	0.77	0.632	0.484	0.707	0.911	0.941	0.406	0.967	0.574	0.711	0.694	0.481
QGIPRYHSQSP [FOXF1_Y331]	0.537	0.733	0.562	0.744	0.677	0.783	1.22	0.691	1.58	1.01	1.02	1.4	1.08	0.849	0.796	0.821
RCYVYYYSYLL [PTEN_Y177_R173C]	0.407	0.668	0.51	0.86	1.64	0.82	1.01	2.13	2	1.42	1.08	1.71	1.36	0.936	0.787	1.35
LGKLIYPVGFW [NTHL1_Y177]	1.13	1.53	1.55	0.557	1.13	0.999	0.634	1.67	1.87	1.6	0.746	1.27	1.35	1.02	0.752	0.816
DCAAIYGNEPD [AKR1A1_Y50_E55D]	0.982	1.11	0.813	0.672	0.957	0.668	0.585	1.25	1.64	1.35	1.09	0.978	1.65	0.726	1.02	0.638
FQVRRYDCDCD [CRYGS_Y21_G18V]	0.891	0.921	0.854	0.497	0.758	0.583	0.553	1.32	1.32	1.19	0.498	0.788	0.622	0.592	0.563	0.557
PADCRYFTFPQ [GAMT_Y222_A224T_YF]	2.07	1.33	1.78	0.68	1.09	0.613	1.66	2.88	1.53	1.1	0.761	0.944	2.58	0.483	0.61	1.2
LRNIDYYRLDG [ATRX_Y2083]	0.775	0.874	11.9	0.499	8.11	1.07	0.851	6.17	1.58	1.3	1.16	0.815	3.35	0.776	3.96	13.1
KAFDMYSGDVM [FAM3D_Y122]	0.462	0.829	0.559	0.423	0.569	1.18	0.876	0.653	0.732	0.832	1.23	0.508	0.935	1.15	0.846	0.593

Second part, led by results:

SH2 binding enrichment [1]	SH2 binding enrichment [2]	SH2 binding enrichment [3]	Sequence	phosphorylation enrichment [4]	phosphorylation enrichment [5]	phosphorylation enrichment [6]	phosphorylation enrichment [7]	phosphorylation enrichment [8]	phosphorylation enrichment [9]	phosphorylation enrichment [10]	phosphorylation enrichment [11]	phosphorylation enrichment [12]	phosphorylation enrichment [13]	phosphorylation enrichment [14]	phosphorylation enrichment [15]	phosphorylation enrichment [16]
0.551	0.891	1.12	PLDEEYFTLQI [TP53_Y327_G325E]	0.691	4.54	1.02	0.941	2.57	2.25	2.96	1.2	1.13	2.69	0.888	1.91	4.65
0.494	1.04	0.918	KWTVDYLGQVG [TYW5_Y48_S50G]	0.405	0.602	0.515	0.336	0.845	0.774	0.913	0.487	0.621	0.392	0.444	0.46	0.531
0.789	0.981	0.46	VYAADYYKLLG [ROR2_Y645]	0.516	10.1	2.38	5.31	7.96	0.944	1.28	1.28	1.99	2.26	1.78	1.01	12.8
2	0.745	0.699	FYRNVYHLASV [RBL1_Y796_K794N]	0.417	0.556	0.611	0.371	0.484	0.635	0.728	0.648	0.429	1	0.587	1.93	0.464
0.524	0.932	0.662	DNEAIYDICRC [TUBA4A_Y210_R215C]	7.98	0.761	1.82	5.93	0.923	1.28	3.65	7.18	10.3	6.51	4.87	9.3	0.633
0.318	0.56	0.51	SHISGYAALRR [RAPH1_Y1226_T1228A]	0.432	0.554	0.328	0.446	0.561	1.04	0.836	0.431	0.726	0.44	0.476	0.494	0.361
0.434	0.945	0.83	AKLDEYIAIAK [RCOR3_Y46]	0.452	0.711	0.614	0.522	0.79	0.949	0.92	0.473	0.621	0.367	0.565	0.479	0.535
